Our source for the 抗原结合能力下降 (fall of OD450 against the 4℃ sample) and 皮尔森相关系数 (Pearson correlation of mCherry and Alexa Fluor 488 signals) values is patent CN111909274A.

Test [1] deals with GPC3ΔGPI-FLAG重组蛋白 (GPC3 without its GPI region, C-terminal FLAG tag) (Homo sapiens (Human)) (UniProt P51654). As to the kind of experiment: ELISA on coated GPC3ΔGPI-FLAG, antibody pre-treated 2 h at 90℃, reference 4℃.
The target is the same in test [2]. Briefly: ELISA on coated GPC3ΔGPI-FLAG, antibody pre-treated 2 h at 70℃, reference 4℃.
For test [3] the target is unchanged. Briefly: ELISA on coated GPC3ΔGPI-FLAG, nanobody pre-treated 2 h at 70℃, reference 4℃. (ELISA stands for enzyme-linked immunosorbent assay.)
Test [4] shares this target. As to the kind of experiment: ELISA on coated GPC3ΔGPI-FLAG, nanobody pre-treated 2 h at 90℃, reference 4℃.
In test [5] the target is mCherry-GPC3 (mCherry fused to the N-terminus of GPC3, stably expressed on HEK293T cells) (UniProt P51654). As to the kind of experiment: immunofluorescence colocalisation on HEK293T cells expressing mCherry-GPC3, confocal microscopy.

For “HN3-hFc融合抗体 (known GPC3 nanobody HN3 fused to human Fc, bought from Creative Biolabs) (Fc fusion)”, the 抗原结合能力下降 (fall of OD450 against the 4℃ sample) in test [1] amounted to 58.3%; in test [2] it was 42.9%.

B1: G11纳米抗体 (GPC3 nanobody G11, His-tagged, from pET22b-G11-His) (VHH, not shown: small tags and cut ends)
VHH: QVQLVESGGALVQPGGSLRLSCAASSSDFSRNALRWYRQAPGKEREWVCGINWTGSGYAYEDSVKGRFTCSRDDARNTVYLQLNSLKPEDTAVYYCAPLACSNCFPYKHYVYWGQGTQVTVSS
B1: the 抗原结合能力下降 (fall of OD450 against the 4℃ sample) in test [3] stood at 16.7%; in test [4], 30.8%. Also, the 皮尔森相关系数 (Pearson correlation of mCherry and Alexa Fluor 488 signals) in test [5] was found to be 0.929.
